Measurements: patent US20040001822A1, “Y1-isolated molecules comprising epitopes containing sulfated moieties, antibodies to such epitopes, and uses thereof” (priority 2000, published 2004)
Starred links: 1 amine or outer side, 2 acyl side, 3 side chain; linkers in the order of their positions; H or OH if unused. No end group written: not given here. SO3H = sulfated tyrosine (Y*), O=S(=O)(O)[*:2]

Columns and labels:
Conditions in all cases: remark: other sources report otherwise
[1] = biological target: Y1 scFv; assay: competition FACS, peptide 2.5 µM preincubated with Y1-scFv, washed platelets
Chain of Y1 scFv (chain, as listed by the source): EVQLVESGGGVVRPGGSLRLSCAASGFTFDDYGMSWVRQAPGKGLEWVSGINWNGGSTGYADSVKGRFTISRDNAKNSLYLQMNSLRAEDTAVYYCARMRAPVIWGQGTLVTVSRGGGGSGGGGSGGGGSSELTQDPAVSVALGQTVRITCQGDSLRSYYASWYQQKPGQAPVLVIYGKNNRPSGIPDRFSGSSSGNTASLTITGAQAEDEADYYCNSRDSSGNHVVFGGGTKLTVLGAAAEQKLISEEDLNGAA

[2] = biological target: Y1 scFv; assay: competition ELISA, peptide 0.5 µM preincubated with Y1 (0.25 µg/well), glycocalicin-coated plate
[3] = biological target: Y1 scFv; assay: competition FACS, peptide 200 µM preincubated with Y1-scFv, washed platelets
[4] = biological target: Y1 scFv; assay: competition ELISA, peptide 200 µM preincubated with Y1 (0.25 µg/well), glycocalicin-coated plate
[5] = biological target: Y1 scFv; assay: competition ELISA, peptide 2.5 µM preincubated with Y1 (0.25 µg/well), glycocalicin-coated plate
[6] = biological target: Y1 scFv; assay: competition ELISA, peptide 25 µM preincubated with Y1 (0.25 µg/well), glycocalicin-coated plate

- Residual Binding of Y1 (% of baseline) (Geo Mean) [1]: 41%
- Residual Binding of Y1 (% of baseline) [2]: 89%
- Residual Binding of Y1 (% of baseline) (Geo Mean) [3]: 5%
- Residual Binding of Y1 (% of baseline) [4]: 0%
- Residual Binding of Y1 (% of baseline) [5]: 62%
- Residual Binding of Y1 (% of baseline) [6]: 25%
Binder: GDEGDTDLY(SO3H)DY(SO3H)Y(SO3H)PEEDTE [P-1-S peptide (residues 268-285 of GPIbα, sulfated)]
